The record followed here is article PMC9705753.

In this assay the target is Gal4 DNA-Binding Domain (DBD) linked to the LOV domain of WC-1 (N. crassa) (UniProt Q01371). Put plainly: two-hybrid; Y2H-like optogenetic switch (FUN-LOV variants) in S. cerevisiae BY4741 or 59A-EC1118; genome-integrated luciferase reporter under P_GAL1 or P_5XGAL1; constant blue light or a single 2-h blue-light pulse (466 nm, 24 umol m^-2 s^-1) compared with constant darkness; 25°C, SC medium with 1 mM luciferin.
Chain of UniProt Q01371 (Q01371 381-508): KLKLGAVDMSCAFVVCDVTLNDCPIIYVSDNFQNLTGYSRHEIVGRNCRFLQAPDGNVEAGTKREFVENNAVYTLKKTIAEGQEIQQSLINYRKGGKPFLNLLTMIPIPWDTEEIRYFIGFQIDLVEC

In turn, “Gal4-activation domain (AD) tethered to the LOV domain of VVD (from UniProt Q9C3Y6 1-186) (domain or fragment)” came in with a fold induction of luciferase expression (blue-light pulse / darkness), 59A-EC1118 strain, P 5XGAL1-Luc of 982 fold.
